Primed or numbered codes have the meaning given here. *: point of attachment. FITC = O=C1OC2(c3ccc(O)cc3Oc3cc(O)ccc32)c2ccc(NC(=S)*)cc21; Dnp′ = not defined here; CH2Cl = ClC*
How the values were obtained:
SaPrp [1] = molecular target: T1, SaPrp (Staphylococcus aureus, UniProt Q2FXS9, N63Q); format: biochemical; conditions: compound at 100 μM, FITC-conjugated peptide
T1 sequence (Q2FXS9 1-106 N63Q): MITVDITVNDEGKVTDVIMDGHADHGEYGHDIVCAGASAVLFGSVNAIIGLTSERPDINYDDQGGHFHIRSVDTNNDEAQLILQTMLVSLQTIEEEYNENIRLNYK

SaPrp [2] = molecular target: T1, SaPrp; assay: Michaelis–Menten steady-state kinetics, cleavage of FITC-[…]-Dnp; format: biochemical
SaPrp [3] = assay: Covalent complex formation with SaPrp, mass spectrometry; format: biochemical, Staphylococcus aureus; conditions: 2.6-fold molar excess over SaPrp, 1 h, room temperature
[4] = other cysteine proteases, means and standard deviations; cited from earlier work

COC([CH2][Hg+])CNC(=O)c1ccccc1OCC(=O)O.[OH-] (stereo not drawn) [Compound 4, Mersalyl Acid]
Inhibition of Prp at 100 μM (SaPrp [1]): Prp could not cleave the peptide

FITC-KLNLQFFASKK-Dnp ({FITC}-KLNLQFFASKK-{Dnp′}) [Compound 1]
Vmax (SaPrp [2]; FITC-KLNLQFFASKK-Dnp substrate 0.2–20 μM, 48.2 nM SaPrp (monomer)): 11 ± 4.0 nM/s | kcat (SaPrp [2]; FITC-KLNLQFFASKK-Dnp substrate, ET constrained to 42.8 nM active sites): 0.26 ± 0.05 s^–1

acetyl-KLNLQFF-chloromethylketone (Ac-KLNLQFF-CH2Cl; SMILES CC(=O)N[C@@H](CCCCN)C(=O)N[C@@H](CC(C)C)C(=O)N[C@@H](CC(N)=O)C(=O)N[C@@H](CC(C)C)C(=O)N[C@@H](CCC(N)=O)C(=O)N[C@@H](Cc1ccccc1)C(=O)N[C@@H](Cc1ccccc1)C(=O)CCl) [Ac-KLNLQFF-CMK]
Formation of the covalent complex with SaPrp (SaPrp [3]): > 95%

B1: papain: literature comparator cysteine protease (protein, UniProt P00784 134-345, looked up)
Papain: IPEYVDWRQKGAVTPVKNQGSCGSCWAFSAVVTIEGIIKIRTGNLNEYSEQELLDCDRRSYGCNGGYPWSALQLVAQYGIHYRNTYPYEGVQRYCRSREKGPYAAKTDGVRQVQPYNEGALLYSIANQPVSVVLEAAGKDFQLYRGGIFVGPCGNKVDHAVAAVGYGPNYILIKNSWGTGWGENGYIRIKRGTGNSYGVCGLYTSSFYPVKN
kcat [4]: 0.0162 ± 0.000135 s^–1

B2: μ-calpain: literature comparator cysteine protease (protein, UniProt P07384 2-714; P04632 1-268, looked up)
Calpain-1 catalytic subunit: SEEIITPVYCTGVSAQVQKQRARELGLGRHENAIKYLGQDYEQLRVRCLQSGTLFRDEAFPPVPQSLGYKDLGPNSSKTYGIKWKRPTELLSNPQFIVDGATRTDICQGALGDCWLLAAIASLTLNDTLLHRVVPHGQSFQNGYAGIFHFQLWQFGEWVDVVVDDLLPIKDGKLVFVHSAEGNEFWSALLEKAYAKVNGSYEALSGGSTSEGFEDFTGGVTEWYELRKAPSDLYQIILKALERGSLLGCSIDISSVLDMEAITFKKLVKGHAYSVTGAKQVNYRGQVVSLIRMRNPWGEVEWTGAWSDSSSEWNNVDPYERDQLRVKMEDGEFWMSFRDFMREFTRLEICNLTPDALKSRTIRKWNTTLYEGTWRRGSTAGGCRNYPATFWVNPQFKIRLDETDDPDDYGDRESGCSFVLALMQKHRRRERRFGRDMETIGFAVYEVPPELVGQPAVHLKRDFFLANASRARSEQFINLREVSTRFRLPPGEYVVVPSTFEPNKEGDFVLRFFSEKSAGTVELDDQIQANLPDEQVLSEEEIDENFKALFRQLAGEDMEISVKELRTILNRIISKHKDLRTKGFSLESCRSMVNLMDRDGNGKLGLVEFNILWNRIRNYLSIFRKFDLDKSGSMSAYEMRMAIESAGFKLNKKLYELIITRYSEPDLAVDFDNFVCCLVRLETMFRFFKTLDTDLDGVVTFDLFKWLQLTMFA
Calpain small subunit 1: MFLVNSFLKGGGGGGGGGGGLGGGLGNVLGGLISGAGGGGGGGGGGGGGGGGGGGGTAMRILGGVISAISEAAAQYNPEPPPPRTHYSNIEANESEEVRQFRRLFAQLAGDDMEVSATELMNILNKVVTRHPDLKTDGFGIDTCRSMVAVMDSDTTGKLGFEEFKYLWNNIKRWQAIYKQFDTDRSGTICSSELPGAFEAAGFHLNEHLYNMIIRRYSDESGNMDFDNFISCLVRLDAMFRAFKSLDKDGTGQIQVNIQEWLQLTMYS
kcat [4]: 0.015 ± 0.002 s^–1

Source: paper PMC9261936 (Biochemistry, 2022)
